{"source": "paper PMC4433907", "about": "“Heterologous expression and characterization of laccase 2 from Coprinopsis cinerea capable of decolourizing different recalcitrant dyes” (Biotechnology, Biotechnological Equipment, 2014)", "proteins": {"B1": {"name": "CcLcc2 (laccase 2) (Coprinopsis cinerea okayama7#130) (protein)", "chain": "AIGPSTNLVVANKVIAPDGFSRSAVLAGATQPTVQFPGPVIQGNKNSFFAINVIDALTDPTMLRTTSIHWHGMFQRGTAWADGPAGVTQCPISPGHSFLYKFQALNQAGTFWYHSHHESQYCDGLRGAMVVYDPVDPHRNLYDIDNEATIITLADWYHVPAPSAGLVPTPDSTLINGKGRYAGGPTVPLAVISVTRNRRYRFRLVSLSCDPNYVFSIDGHTMTVIEVDGVNVQPLVVDSIQIFAGQRYSFVLNANRPVGNYWVRANPNIGTTGFVGGVNSAILRYVGASNTDPTTTQTPFSNPLLETNLHPLTNPAAPGLPTPGGVDVAINLNTVFDFSSLTFSVNGATFHQPPVPVLLQIMSGAQTAQQLLPSGSVYVLPRNKVIELSMPGGSTGSPHPFHLHGHEFAVVRSAGSSTYNFANPVRRDVVSAGVAGDNVTIRFRTDNPGPWILHCHIDWHLVLGLAVVFAEDAPTVATMDPPPAWDQLCPIYDALPPNT"}}, "assay_in_all_cases": "purified protein", "key": {"[1]": {"substrate": "COc1ccccc1O", "conditions": "McIlvaine buffer, 30 °C, 10 min, apparent Km"}, "[2]": {"substrate": "COc1cccc(OC)c1O", "format": "biochemical, Coprinopsis cinerea", "conditions": "McIlvaine buffer, 30 °C, 10 min, apparent Km"}, "[3]": {"substrate": "CCn1c(=NN=c2sc3cc(S(=O)(=O)O)ccc3n2CC)sc2cc(S(=O)(=O)O)ccc21", "format": "biochemical, Coprinopsis cinerea", "conditions": "McIlvaine buffer (pH 2.6 in the standard assay), 30 °C, 10 min, apparent Km"}}}
{"protein": "B1", "values": [{"measurement": "Km", "setting": "[1]", "result": 28070, "unit": "µM"}, {"measurement": "Vmax", "setting": "[1]", "result": 2.46, "unit": "µmol/min/mg"}, {"measurement": "kcat", "setting": "[1]", "result": 3.12, "unit": "s⁻¹"}, {"measurement": "kcat/Km", "setting": "[1]", "result": 111, "unit": "M⁻¹ s⁻¹"}, {"measurement": "Km", "setting": "[2]", "result": 1020, "unit": "µM"}, {"measurement": "Vmax", "setting": "[2]", "result": 57.5, "unit": "µmol/min/mg"}, {"measurement": "kcat", "setting": "[2]", "result": 73, "unit": "s⁻¹"}, {"measurement": "kcat/Km", "setting": "[2]", "result": 71600, "unit": "M⁻¹ s⁻¹"}, {"measurement": "Km", "setting": "[3]", "result": 930, "unit": "µM"}, {"measurement": "Vmax", "setting": "[3]", "result": 667, "unit": "µmol/min/mg"}, {"measurement": "kcat", "setting": "[3]", "result": 847, "unit": "s⁻¹"}, {"measurement": "kcat/Km", "setting": "[3]", "result": 911000, "unit": "M⁻¹ s⁻¹"}]}
